Where two headings read alike, the source gives them in different places.
Columns and labels:
Assay in all cases: ELISA
[1] = biological target: T1, Cry4Ba-domain II fragment (Bacillus thuringiensis subsp. …, UniProt P05519 286-470)
T1 sequence: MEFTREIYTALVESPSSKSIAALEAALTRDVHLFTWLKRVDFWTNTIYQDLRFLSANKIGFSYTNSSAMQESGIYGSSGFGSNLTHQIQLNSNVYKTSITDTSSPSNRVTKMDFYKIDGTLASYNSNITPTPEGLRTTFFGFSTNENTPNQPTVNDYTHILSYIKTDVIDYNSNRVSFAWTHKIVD

[2] = biological target: T2, Cry4Ba-domain III fragment (Bacillus thuringiensis subsp. …)
T2 sequence (P05519 whole entry, looked up): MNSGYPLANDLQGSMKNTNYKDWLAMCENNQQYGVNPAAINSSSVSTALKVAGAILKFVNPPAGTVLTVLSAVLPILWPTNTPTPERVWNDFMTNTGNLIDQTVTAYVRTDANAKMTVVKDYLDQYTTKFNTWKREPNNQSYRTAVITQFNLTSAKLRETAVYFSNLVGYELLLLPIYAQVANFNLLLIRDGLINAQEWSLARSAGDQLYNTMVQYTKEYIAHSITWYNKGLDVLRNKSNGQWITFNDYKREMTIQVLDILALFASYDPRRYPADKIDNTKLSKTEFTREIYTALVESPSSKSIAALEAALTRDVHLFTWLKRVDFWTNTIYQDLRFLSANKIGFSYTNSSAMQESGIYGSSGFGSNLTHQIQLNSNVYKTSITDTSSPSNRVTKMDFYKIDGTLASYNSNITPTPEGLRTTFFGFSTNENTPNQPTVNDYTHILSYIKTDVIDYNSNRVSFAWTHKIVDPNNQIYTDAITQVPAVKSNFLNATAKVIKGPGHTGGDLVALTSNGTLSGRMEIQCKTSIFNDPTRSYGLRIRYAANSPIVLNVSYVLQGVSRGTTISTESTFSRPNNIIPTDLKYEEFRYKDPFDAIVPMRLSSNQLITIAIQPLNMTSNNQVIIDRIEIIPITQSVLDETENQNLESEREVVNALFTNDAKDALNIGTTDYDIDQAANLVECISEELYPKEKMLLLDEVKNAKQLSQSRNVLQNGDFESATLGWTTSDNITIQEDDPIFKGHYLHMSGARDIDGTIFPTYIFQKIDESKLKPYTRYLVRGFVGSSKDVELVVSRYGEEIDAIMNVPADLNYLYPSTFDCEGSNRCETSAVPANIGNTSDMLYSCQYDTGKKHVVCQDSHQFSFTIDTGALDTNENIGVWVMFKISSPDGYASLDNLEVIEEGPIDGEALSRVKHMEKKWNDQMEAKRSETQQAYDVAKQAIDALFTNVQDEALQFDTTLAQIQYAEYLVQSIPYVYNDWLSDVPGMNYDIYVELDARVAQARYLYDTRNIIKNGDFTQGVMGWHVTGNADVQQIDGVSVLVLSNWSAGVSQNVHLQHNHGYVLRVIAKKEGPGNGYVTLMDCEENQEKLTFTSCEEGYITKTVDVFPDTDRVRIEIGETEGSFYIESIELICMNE

[3] = biological target: T1, Cry4Ba-domain II fragment; remark: listed apart in the source

B1: Aedes aegypti membrane-bound alkaline phosphatase (Aa-mALP) (receptor)
chain: MTLYRSRAANMSRLRFDVSVWVMVTMCVLSARNCWAQGEYDPNYWNQQAHDLLFEKKDYTMQKVNIAKNIIVFVGSGMSQATVTAARTHKGGENATFPFEQLKWSGNARTYCVDSRVPDSACASTAFLTGVKSNLGTVAVHPNVKRGDCVATSDKVKQLESIAKWALAEGRVVGFATTSRVTAGSNAALYAHSADKDWENDASVTAAGCNATQVNDIAYQLINGDVGKHFKVIFGGGRKNFIPNTETDESGARGLRTDGKNLIQEWKESKTGNAVYITTNSELGALNTTNIDYLMGLFSYDRLPYAADMGEEPNKETPPLVRMVHYSLEMLQKKEHSGGFLLFVEDGNIQEAHKENKPIKAFEQVKHYANAFNMAHMMVSEANTLLISMNDVGSTLSIPGYPARDTDILTEAGTSDKDSKPYLSLAYATGPSYDSYYQPNEGRVNPLAVLQGTPTQKEQTCSAAVPMSEGVNGGEDASVYATGPWAFMFSGGYEQNFIAHAISFASCITDVCGGASSVVVSSAALLLALMVRVFA
B1 gave a Kd [1] of 118 nM, a Kd [2] of 118 ± 8.1 nM and a Kd [3] of 116 nM.
